# Experimental data taken from patent US12534533B2, “Anti-chemokine like receptor 1 humanized antibodies and their therapeutic applications” (OSE IMMUNOTHERAPEUTICS, priority 2019, dated 2026).
# T1: CMKLR1 receptor (CHO-K1 CMKLR1 cells) (Homo sapiens, UniProt Q99788)
# T1 construct: host or cells: CHO-K1
# T1 sequence (Q99788 1-373): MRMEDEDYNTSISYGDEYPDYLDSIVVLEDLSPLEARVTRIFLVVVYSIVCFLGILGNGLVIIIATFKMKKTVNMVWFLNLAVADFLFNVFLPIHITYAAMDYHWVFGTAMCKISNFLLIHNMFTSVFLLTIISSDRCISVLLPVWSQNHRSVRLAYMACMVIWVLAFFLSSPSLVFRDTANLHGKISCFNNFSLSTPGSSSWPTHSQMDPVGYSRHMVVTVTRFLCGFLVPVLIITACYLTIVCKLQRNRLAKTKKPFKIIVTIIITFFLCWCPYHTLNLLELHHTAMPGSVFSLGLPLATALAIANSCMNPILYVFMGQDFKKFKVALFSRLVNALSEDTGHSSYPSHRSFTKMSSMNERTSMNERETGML
# What was measured:
# [1] = target: T1, CMKLR1 receptor (CHO-K1 CMKLR1 cells); assay: competition assay, Chemerin-dependent beta-arrestin recruitment by CMKLR1 receptor; type: cell-based; conditions: antibody 1 μM to 1 nM, Chemerin 2 or 6 nM; FIG. 18B
# Experimental: The day before the assay, CHO-K1 CMKLR1 cells (Discover'X ref 93-0313E2) were plated in pre-warmed cell reagent then plated in a 96-well plate at 100 μl/well of cells as (Discover'X ref 15-103) and incubated […] at 37° C., in a 5% CO2 humidified incubator. The anti-CMLKR1 antibody was diluted (22× in 7-point series of 3-fold dilutions from 1 μM to 1 nM) and cells were incubated 30 min at 37° C. with the antibody. […] The luminescence was measured after Working Detection Solution addition to the cells with a plate reader with 0.5 s integration.
# [2] = test system: neutrophils and macrophages in exudates; assay: in vivo neutrophils apoptosis (sterile air and carrageenan, exudates)
# Experimental: FIG. 27—in vivo neutrophils apoptosis —A) Experimental proceedings—B) ChemR23 expression C) neutrophils frequency in exudates D) macrophages frequency in exudates G) neutrophils mortality F) Ratio dead/living neutrophils.
# Sterile air was injected two times at d3 and d6 and inflammation was initiated with the injection of carrageenan. Exudates were collected at different times and stained for flow cytometry analysis.
molecule,measurement,setting,value
"2G1: parental chimeric anti-CMKLR1 antibody: heavy chain variable domain SEQ ID No. 37, light chain variable domain SEQ ID No. 49 (antibody, V domains shown) VH: EVQLVASGGGLVQPGGSLKLSCAASGFTFSSYGMSWVRQTPDRRLELVATINRYGGSTYYPDSVKGRFTISRDNAKNTLYLQMSSLKSEDTAMYYCPRLIYYGNEGDSWGQGTTLTVSS VL: QIVLTQSPAIMSASPGEKVTMTCSASSSVSFMHWYQQKSGTSPKRWIYDTTKLTSGVPARFSGSGSGTFYSLTISSMEAEDAATYYCQQWNSKPPLTFGPGTKLELKR",chemerin-dependent activation of the beta-arrestin,[1],did not significantly modify chemerin-dependent activation of the beta-arrestin
same,percentage of neutrophils in exudates,[2]; FIG. 27C,not significantly decreased
same,overall percentage of macrophages in exudates,[2]; FIG. 27D,slightly enhanced
same,percentage of dead neutrophils,[2]; FIG. 27E and FIG. 27F,increased
